The target in assay [1] is human angiopoietin-1 (human) (UniProt Q15389). Briefly: HTRF; competition with huTie-2-Fc-APC for biotinylated hAng1.
Assay [2] addresses human angiopoietin-2 (human) (UniProt O15123). Put plainly: HTRF; competition with huTie-2-Fc-APC for biotinylated hAng2.
Assay [3] concerns the target mouse Tie2 (mouse) (UniProt Q02858). Put plainly: cell-based or functional assay.

Experimental findings from patent US20170081398A1 are described below.

Several values for one entry are separate records, joined by “and”; a condition that tells them apart may be missing. Equal entries are not always repeated.

human angiopoietin-1 (human), sequence (Q15389 20-498 limits assumed): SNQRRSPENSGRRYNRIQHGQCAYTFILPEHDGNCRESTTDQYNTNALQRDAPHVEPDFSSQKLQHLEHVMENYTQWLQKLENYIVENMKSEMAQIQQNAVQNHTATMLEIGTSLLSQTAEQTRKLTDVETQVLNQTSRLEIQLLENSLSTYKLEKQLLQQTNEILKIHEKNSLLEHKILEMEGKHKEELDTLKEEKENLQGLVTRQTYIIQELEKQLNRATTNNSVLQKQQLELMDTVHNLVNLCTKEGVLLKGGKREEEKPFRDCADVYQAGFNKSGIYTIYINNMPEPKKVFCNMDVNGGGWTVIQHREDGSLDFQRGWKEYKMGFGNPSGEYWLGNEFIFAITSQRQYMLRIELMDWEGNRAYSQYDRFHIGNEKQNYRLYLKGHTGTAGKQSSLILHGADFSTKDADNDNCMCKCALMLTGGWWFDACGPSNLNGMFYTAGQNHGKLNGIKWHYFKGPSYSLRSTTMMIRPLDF
human angiopoietin-2 (human), sequence (O15123 19-496 limits assumed): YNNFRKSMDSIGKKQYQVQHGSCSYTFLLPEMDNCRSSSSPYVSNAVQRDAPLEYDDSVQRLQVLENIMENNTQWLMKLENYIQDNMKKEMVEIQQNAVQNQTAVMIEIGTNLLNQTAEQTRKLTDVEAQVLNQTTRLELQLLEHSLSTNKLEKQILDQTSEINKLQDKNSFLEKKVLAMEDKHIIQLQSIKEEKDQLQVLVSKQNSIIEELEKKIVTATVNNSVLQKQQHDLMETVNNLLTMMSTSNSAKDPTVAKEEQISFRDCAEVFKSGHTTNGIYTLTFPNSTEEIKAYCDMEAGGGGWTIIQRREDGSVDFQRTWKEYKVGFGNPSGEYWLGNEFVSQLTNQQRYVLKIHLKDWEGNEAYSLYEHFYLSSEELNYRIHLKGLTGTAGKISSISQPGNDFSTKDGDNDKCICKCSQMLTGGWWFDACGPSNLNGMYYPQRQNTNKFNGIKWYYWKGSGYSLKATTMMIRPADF
mouse Tie2 (mouse), sequence (Q02858 23-1122): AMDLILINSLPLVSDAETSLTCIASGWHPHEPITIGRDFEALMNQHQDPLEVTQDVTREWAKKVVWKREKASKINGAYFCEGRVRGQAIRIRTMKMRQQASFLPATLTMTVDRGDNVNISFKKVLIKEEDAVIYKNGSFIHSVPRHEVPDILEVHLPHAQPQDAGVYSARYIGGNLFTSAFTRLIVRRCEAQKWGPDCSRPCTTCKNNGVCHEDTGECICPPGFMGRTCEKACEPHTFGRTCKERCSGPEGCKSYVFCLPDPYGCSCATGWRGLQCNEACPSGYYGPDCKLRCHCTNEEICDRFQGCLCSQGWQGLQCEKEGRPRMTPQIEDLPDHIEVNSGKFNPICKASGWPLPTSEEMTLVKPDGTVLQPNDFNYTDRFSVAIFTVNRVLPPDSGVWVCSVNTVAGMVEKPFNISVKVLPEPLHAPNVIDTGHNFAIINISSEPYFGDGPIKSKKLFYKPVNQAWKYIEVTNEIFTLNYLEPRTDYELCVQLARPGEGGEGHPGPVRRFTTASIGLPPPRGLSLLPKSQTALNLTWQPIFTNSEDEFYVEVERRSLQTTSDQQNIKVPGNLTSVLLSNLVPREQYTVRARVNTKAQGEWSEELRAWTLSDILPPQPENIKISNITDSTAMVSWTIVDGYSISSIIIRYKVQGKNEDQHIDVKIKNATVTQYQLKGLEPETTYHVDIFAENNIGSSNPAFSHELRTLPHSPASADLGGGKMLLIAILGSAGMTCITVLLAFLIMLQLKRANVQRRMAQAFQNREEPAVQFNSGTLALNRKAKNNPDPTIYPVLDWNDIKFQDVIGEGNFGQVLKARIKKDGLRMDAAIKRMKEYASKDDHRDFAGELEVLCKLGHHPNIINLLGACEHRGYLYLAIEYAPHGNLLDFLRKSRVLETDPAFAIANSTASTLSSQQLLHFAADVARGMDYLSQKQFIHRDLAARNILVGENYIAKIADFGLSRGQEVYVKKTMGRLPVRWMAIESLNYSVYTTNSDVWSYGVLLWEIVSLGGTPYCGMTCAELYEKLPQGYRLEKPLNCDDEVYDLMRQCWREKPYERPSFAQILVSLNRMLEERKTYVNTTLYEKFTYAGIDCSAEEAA

As to AMG 386 (Fc fusion), the IC90/IC50 is 41 and 71 in assay [1]; 4.1 and 4.4 in assay [2]. Regarding “recombinant Ang1 (R&D Systems Inc.) (ligand)”, in assay [3], the Tie2 phosphorylation in mouse lung endothelium (immunoprecipitation-Western blot) is 5 fold.
